In the DeepSol protein solubility set:

Test: soluble on expression in E. coli; label from the status in PepcDB or PDB records

Sequence	soluble on expression in E. coli
MATTPETMENHAFDADMSFESALENYLSSDFGDLEEGSIVKGEIVRLGDDYVLVDVNFKSEGQIAANEFRDANGDLIIGVGDRVDVFVVRKNEMEGTITLSYEKAKRMQLFDQLEEVQEKNGVIKGRIVRRIKGGYTVDLGGVEAFLPGSHVDLRPVPDMDALVNQEYEFRVLKINRRRSNVIVSRRVLLEEERDSKRQDLLRTLEEGQVVKGKAKNITEYGVFVDLGGLDGLLHITDMSWKRIRHPKELVSLGQELELKVLSFDRDSQKVSLGMKQLVADPWQDITAKFPEGLRGQGKVTNLVDYGAFVELEPGVEGLVHISEMSWTRKLRHPSQMVRVGDEVEVVILGVDPDKKRISLGMKQVKPNPWEVVAEKYPEGTILEGVIKNITEFGMFIGIEDGIDGLIHVSDISWTKKIRHPNEMYKVGDVVQAKVLTVDQENEKFTLGVKQLAEDPWSRVPATYPVGTLVTGSVTNITDFGLFVEVEEGIEGLVHVSEISQKKIKSPSEIYKEGQEIQAKVIHVSAEERRLGLSIKQLKDEEERRKPKEFRSGSPEVGGQTLGDILKLKLEEDAADNLEHHHHHH	not soluble
SMIPDFMSFTSHIDELYESAKKQSGGKVADYIPQLAKFSPDLWGVSVCTVDGQRHSTGDTKVPFCLQSCVKPLKYAIAVNDLGTEYVHRYVGKEPSGLRFNKLFLNEDDKPHNPMVNAGAIVVTSLIKQGVNNAEKFDYVMQFLNKMAGNEYVGFSNATFQSERESGDRNFAIGYYLKEKKCFPEGTDMVGILDFYFQLCSIEVTCESASVMAATLANGGFCPITGERVLSPEAVRNTLSLMHSCGMYDFSGQFAFHVGLPAKSGVAGGILLVVPNVMGMMCWSPPLDKMGNSVKGIHFCHDLVSLCNFHNYDNL	soluble
MGSDKIHHHHHHMNQQTAAAQSTGVQAGTESSLLDEIVEKSKVAKSESEHARAKDLIGELVSQVLDGTVVVSDNLSATIDARVAELDRLISSQLSAVMHAAEFQRLESTWRGLDYLVKESNTGSTIKIKALHAPKRDLVRDFKNATEFDQSALFKKVYEEEFGTFGGSPFGVLVGDYEISRQPEDQYFIEQMSHVAAAAHAPFIASAAPELLGLESFADLGKPRDLGKVFDTVEYAKWKSFRDSEDSRYVGLTLPRFLGRLPFNPKDGAIAESFNFVEDVDGTDHDKYLWCNASWAFAARLTAAFDDFGWCAAIRGVEGGGLVEDLPTHTFKTDDGEIALKCPTEIAITDRREKELSDLGFIPLVHCKNSDYAAFFAAQSVQKPKKYSTDSANANAVLSAQLQYIFSVSRIAHYLKAMMRDKIGSFASAQNVETFLNRWISQYVLLDDDATQEQKAQFPLREASVQVSEIPGKPGAYRSVAFLRPHFQLDELSISLRLVADLPKPANS	not soluble
MGSDKIHHHHHHMTYELSTDREFDLIAIGRACIDLNAVEYNRPMEETMTFSKYVGGSPANIVIGSSKLGLKAGFIGKIADDQHGRFIESYMRGVGVDTSNLVVDQEGHKTGLAFTEIKSPEECSILMYRQDVADLYLSPEEVNEAYIRRSKLLLVSGTALSKSPSREAVLKAIRLAKRNDVKVVFELDYRPYSWETPEETAVYYSLVAEQSDIVIGTREEFDVLENRTEKGDNDETIRYLFKHSPELIVIKHGVEGSFAYTKAGEAYRGYAYKTKVLKTFGAGDSYASAFLYALISGKGIETALKYGSASASIVVSKHSSSDAMPSVEEIEALIEKDETITIA	not soluble
GSHMGGIEVLGVKTGVDSFTEVECFLNPQMGNPDEHQKGLSKSLAAEKQFTDDSPDKEQLPCYSVARIPLPNINEDLTCGNILMWEAVTVKTEVIGVTAMLNLHSGTQKTHENGAGKPIQGSNFHFFAVGGEPLELQGVLANYRTKYPAQTVTPKNATVDSQQMNTDHKAVLDKDNAYPVECWVPDPSKNENTRYFGTYTGGENVPPVLHITNTATTVLLDEQGVGPLCKADSLYVSAVDICGLFTNTSGTQQWKGLPRYFKITLRKRSVKN	soluble
MGSDKIHHHHHHMTWQVWRLGGLAITMVASLLLLDACSRDKAPVQIRSAVSQLPQTLDPRYATDAASARVNRLIYRSLVDFDVHARPAPSLASWRVLSPRLFRFTLGRHGRDFHDGRYLTAEDVAATYQSVIELADSPHAAEFANISKIEVRDENTLDFFLHDADSNFPARLILGILPAELIARQHDFSREPVGSGPFKFVSWQRSLKLERRSDKKRFVFEEVRDPTVRVLKLVRGEADILQGDLPPELVNYLKQQPGIDVQESEGSNFAYIGLNLQDDVLRNPLVRQALAHAIDRESIIKHALVGHSRLAESILPPEHWAGNGNLKPYEYNPVLARELLLRAGVSLPLKLVYKTSTDAQRVRLATMMQAQMRDAGIQLEIRSLDWGTFFDDIKRGNFQLYGLMWVGIKTPEIYHHAFHSSSVPPKGANRGHYADPKTDELIAVSDWASVAERVHAQLPYIPLWYEGQFAATRDHIKGYSLQPDGSWDGLVDVKRSKLKSVFPGRNQSAGM	not soluble
MGSDKIHHHHHHMQLKPLLRQLATTFEVTVDPTFTHNPEVTHVQFVDPTEALASHRLYLSPDSSQLVQLTYSWHGHRQSVGLVNLGTGLTTIIAAQNQLLKLLMTLGQCLHHDVQIQAAINQLAIQAITADFDTTLAQAVRLLENPLAIIDLNGEILTRSHTTQLNGTSIHAAVETNRVGRWLLDHGFAPDTPDFLTQVYVAEDQLSAGPMLITPLANGTEPLGYLVMPALNKPLNDRQALLINSIGQVIAGSLVKNQIMPTAESQRDRLLNLLLTEHQGGTFADQFAEQHVQLPTAMVLIRCEPLADQAPMILQQRLQYLMMPRFKQVLVSTYQQQCVALIPISLVAYNQNQFKLTLQQITKQADCRLIVSQHYVNPEDTFAAYTVCERTAQLKTGRGRVIFCEDQFYNLALARVNHLEILPFFINPALRLLLAYDQQNHTELVPTLDVYLRATCNLTRTAKQLYVHPNTLRNRLHHITTLTGCDLRDAETCFKLAASFKLRQFLTQHQYQYRPDIPIPTQD	not soluble
MKLEGVWKVFGNVVAVRDVNLYIEDKEFVSILGPSGSGKTTLLYLIAGIYKPSRGRIYFNDVDVTDLPPNKRNIGLVFQNYALYPHMTVYENIAFPLRLRNFGEPAIKEKVLSVAKLLGIEGLLDRYPAQLSGGQQQRVALARALVKEPEVLLLDEPLSNLDALLRIKIRSELKKLQKELGITAIYVTHDQSEALAMADRIAIIASGVIQQVGKPWDVYYKPRNVFVASFIGTPPANLVSVPLDSSRRCLLLPGGGRYCPPRRIAEKLAAVKTNSVILGFRPEVAVLSESPLGDYVSMEAEVYTVETLGRENIVTLLVNGSQVKVIVPPVVEPRPGSRIFINIEEDKVMYFDPETEINVEYLEVPGMEEAIAESAGTLRKQEMEEEWD	soluble
MSTSQTKNVSIDTIKEFMYQVLLKVGSDEENARMVRDTLIAADLRGMDTHGIQRFKTVYIDRIKKGMINPTAKPSIIRETSTTCVLDGNNGFGHVNGTIGMKMAIEKAKKYGMGMVVVRNSTHFGIAGYYSLLAAQEGCIGICGTNARSSVAATFGDEPILGTNPLAIGIPSDEAFPYCFDGATSISPTGRFEKYVRMGKTVDKSWASMKGGKPIEDPKELLENYPKGKAYLHPLGGSDEVSGSHKGYCLSEFVEIMSSCLSIANFLNHIEEEKEKSGKFSLGHFFIAINVECFRDLNEFKKNVGDINRTLRNTDKLPGHDRIYTAGEKEYETEQKRRKFGDDLPLVTINEMKELSSFYNVPLPF	soluble
GKIILFEDVEFGGKKLELETSVSDLNVHGFNDIVSSIIVESGTWFVFDDEGFSGPSYKLTPGKYPNPGSWGGNDDELSSVKQQ	soluble
MQYRRQPCSGVVKFNDAITLIDAGLHDLADRWSPGSFQQFLLTHYHMDHVQGLFPLRWGVGDPIPVYGPPDEQGCDDLFKHPGLLDFSHTVEPFVVFDLQGLQVTPLPLNHSKLTFGYLLETAHSRVAWLSDTAGLPEKTLKFLRNNQPQVMVMDCSHPPRADAPRNHCDLNTVLALNQVIRSPRVILTHISHQFDAWLMENALPSGFEVGFDGMEIGVALEHHHHHH	not soluble
MSLQYQNQDNFPERIEYLVDKLNGPSEFARKTGVTLSTITRWRKGEADPSRSNLVKIAEVTGVSIEWLATGKIKEEKTTEEKPAGSLVSRAFERMQAMLEEGVSMIDSYSSINVSAGFGSFNEGITQPDGQEPYSDELLTSLGVKADNCAVFWANGNSMLPTINNYDQMLVDLSRKEIQGDRIYLVQNGESVWVKRVKMEWDGISLISDNKEEYPPISITGENAQNLQIIGQVVHIGHSLIEGHHHHHH	soluble
MSDTTELVDLAVIFPDLEIELKYACADNITGKAIYQQARCLLHKDAITALAKSISIAQLSGLQLVIYDAYRPQQAQAMLWQACPDPQYVVDVTVGSNHSRGTAIDLTLRDEHGNILDMGAGFDEMHERSHAYHPSVPPAAQRNRLLLNAIMTGGGFVGISSEWWHFELPQAASYPLLADQFSCFISPGTQHVS	not soluble
MTWNTCSLCVTSELMNTLDEAKIPLQKAVNYHEQSQNRQFRITLITKCLENQENPEKSEVSVNFFVDLKELVPSCAYFEKFDGLSYVEFSTNCKSTWISAPESVAAPHEDCSHRFQSPIISRNFHAFLDSVCPSLYGIRPTPLTLSSIVPVLDMLSHFHSEPLLTNCERFLMSTNIGHLDGNHLIRLLDKGLCVSLDHRILGRILCICLMSPQAKMSDSSQELAGTIGSVFAQAFVALVYQKLMVKCEENSNLLIEKSKKSIFDGIFMENLKKKLIFHNFYEYSNISKSFRHIKPLEQESSLWPMAMRNLLIPGALGANSSSSKGSSEEKIGNKKRKRQECDHNEESFECILCFDQRCGKCKGEAAFCYKALDNFLYEIRLQLYPHTYRPHLDRDLLREERLSDYILRNQFQPLPDAN	not soluble
MPYIILEDQTRLYYETHGSGTPILFIHGVLMSGQFFHKQFSVLSANYQCIRLDLRGHGESDKVLHGHTISQYARDIREFLNAMELDHVVLAGWSMGAFVVWDYLNQFGNDNIQAAVIIDQSASDYQWEGWEHGPFDFDGLKTAMHAIQTDPLPFYESFIQNMFAEPPAETETEWMLAEILKQPAAISSTILFNQTAADYRGTLQNINVPALLCFGEDKKFFSTAAGEHLRSNIPNATLVTFPKSSHCPFLEEPDAFNSTLLSFLDGVIGKS	not soluble
MFNGDDDFPMGAMHSFGQMHQQMMSDMNMMTGGMLRNMGMGGPMFGGLMVPSPFGAITDGSGQQPSRRRQELEMNPFAPFGGLLGGLGGMGMMMPPPGQGANMYMSSSVMTIGPDGKPRVEQQTVRRHGDVTETKRRVDKNGESSMSIGHSIGDRSHFIDKKRDREGNVRKQQRFQNLDEASAEAFDREFSSRVRQGYGSGSRSSNLREIDNGLSSSRRSPFGGAGASSSSRRMESRGASRGAPIVTLPEEEETAHSRSSTSHRVGGPLIREISEEEAEQAASSIPKRRRGQQ	not soluble
MSILDTEVTLINGEKASMDQWAGHCLLIVNTASECGYTPQLETLEELYEDYAMRGFFVIGVPCNQFGEEEPGKDAQVARRYEEKFGVRFPLLAKSDVNGPNTIELYKKLKGDGPDIEWNFEKFIVAPSGEVVGRFAPSLDPDDMKIINVLEEYLPI	soluble
MGSDKIHHHHHHMEVKPFRPLIYRKEIDGMIAPPFDAITPKEEVELKRNKYNITYLTLPKGRDGIPHAKMLLQSWLENGVLIPMKEDVFIVLRQRFYVGDECINRYGLIAKVKVFPESGDVIPHERTFDMYVKERETLMDGISSQLEPIFLVTLKNDLPGYLKAITDGLKEDNTYFGPENVENFVYYINDKRKINKIISLLAEDKSIVADGHHRLQATKNIAARKSGGEREFWSYAMAYITSIHDPGVLVGGVNRVVSNKFRLDMNVLSKYFEINQVERLDETNINLFNGRLYSLKIRIPVYDNLIDASNDFILSKSASMNYTDIENEVIYTHDIYELMSLVNSGSYSFGIILPRWDKMKLIETLLSGRKLPQKSTYFYPKIPSGLAIDTALELRLS	not soluble
